From paper PMC6555819, “Comprehensive study of nuclear receptor DNA binding provides a revised framework for understanding receptor specificity”

B1: NRC3_wobSeed124_DR5_A14G_o1 (dsDNA)
DNA 1: GCCCTACTGGGCCGTTCAGAGGTCATTGATCATATGGCGATTGACAGCGTAGAATGAAGG
DNA 2: CCTTCATTCTACGCTGTCAATCGCCATATGATCAATGACCTCTGAACGGCCCAGTAGGGC
B2: NRC3_wobSeed40_DR1_A24G_o1 (dsDNA)
DNA 1: GCTAGCCTAGGTCATGGGCCAGTGTACCACGCGAACGCGATTGACAGCGTAGAATGAAGG
DNA 2: CCTTCATTCTACGCTGTCAATCGCGTTCGCGTGGTACACTGGCCCATGACCTAGGCTAGC
B3: NRC3_wobSeed40_DR1_A4C_o1 (dsDNA)
DNA 1: GCTCGCCTAGGTCATGGGCCAGTATACCACGCGAACGCGATTGACAGCGTAGAATGAAGG
DNA 2: CCTTCATTCTACGCTGTCAATCGCGTTCGCGTGGTATACTGGCCCATGACCTAGGCGAGC
B4: NRC3_wobSeed134_DR5_G26T_o1 (dsDNA)
DNA 1: GCGCTGCTAGGTCAACTGATGGTCATCTAAAGCTCGGCGATTGACAGCGTAGAATGAAGG
DNA 2: CCTTCATTCTACGCTGTCAATCGCCGAGCTTTAGATGACCATCAGTTGACCTAGCAGCGC
B5: NRC3_wobSeed82_DR3_G17C_o1 (dsDNA)
DNA 1: GCATCGAAAGGTCGACCAGGTGAGTATACACCGTTTGCGATTGACAGCGTAGAATGAAGG
DNA 2: CCTTCATTCTACGCTGTCAATCGCAAACGGTGTATACTCACCTGGTCGACCTTTCGATGC
B6: NRC3_wobSeed128_DR5_G27T_o1 (dsDNA)
DNA 1: GCTCTTGTAGATCAACAGGAGGTTAATAAAGATCGAGCGATTGACAGCGTAGAATGAAGG
DNA 2: CCTTCATTCTACGCTGTCAATCGCTCGATCTTTATTAACCTCCTGTTGATCTACAAGAGC
B7: NRC3_wobSeed5_DR0_A25C_o1 (dsDNA)
DNA 1: GCCCTTACGGGTCAAGGTTATAGCCCGGGTGGTACGGCGATTGACAGCGTAGAATGAAGG
DNA 2: CCTTCATTCTACGCTGTCAATCGCCGTACCACCCGGGCTATAACCTTGACCCGTAAGGGC
B8: NRC3_wobSeed2_DR0_C23T_o1 (dsDNA)
DNA 1: GCCCTAGTTGGTCAAGGTCACATACGCTATAGGTACGCGATTGACAGCGTAGAATGAAGG
DNA 2: CCTTCATTCTACGCTGTCAATCGCGTACCTATAGCGTATGTGACCTTGACCAACTAGGGC
B9: NRC3_wobSeed2_DR0_A24C_o1 (dsDNA)
DNA 1: GCCCTAGTTGGTCAAGGTCACACCCGCTATAGGTACGCGATTGACAGCGTAGAATGAAGG
DNA 2: CCTTCATTCTACGCTGTCAATCGCGTACCTATAGCGGGTGTGACCTTGACCAACTAGGGC
B10: NRC3_wobSeed73_DR3_A18T_o1 (dsDNA)
DNA 1: GCCAAACTAGGTCACAGTGGTCAAAGTCCGTGCGTAGCGATTGACAGCGTAGAATGAAGG
DNA 2: CCTTCATTCTACGCTGTCAATCGCTACGCACGGACTTTGACCACTGTGACCTAGTTTGGC
B11: NRC3_wobSeed77_DR3_A14T_o1 (dsDNA)
DNA 1: GCACTTACGGGTCTACGAGGTTATAGCACGCGTATAGCGATTGACAGCGTAGAATGAAGG
DNA 2: CCTTCATTCTACGCTGTCAATCGCTATACGCGTGCTATAACCTCGTAGACCCGTAAGTGC
B12: NRC3_wobSeed34_DR1_T23C_o1 (dsDNA)
DNA 1: GCATCGAAAGGTCGAAGGTGAGCATACCCACCCGAAGCGATTGACAGCGTAGAATGAAGG
DNA 2: CCTTCATTCTACGCTGTCAATCGCTTCGGGTGGGTATGCTCACCTTCGACCTTTCGATGC
B13: NRC3_wobSeed141_DR5_G21C_o1 (dsDNA)
DNA 1: GCAGTCAAAGTTCAGGACGACGTAACGTAAAGCACGGCGATTGACAGCGTAGAATGAAGG
DNA 2: CCTTCATTCTACGCTGTCAATCGCCGTGCTTTACGTTACGTCGTCCTGAACTTTGACTGC
B14: NRC3_wobSeed87_DR3_A21T_o1 (dsDNA)
DNA 1: GCCGAACTAGGTCATCCAGGTCAGTGAATACATTGAGCGATTGACAGCGTAGAATGAAGG
DNA 2: CCTTCATTCTACGCTGTCAATCGCTCAATGTATTCACTGACCTGGATGACCTAGTTCGGC
B15: NRC3_wobSeed4_DR0_G11T_o1 (dsDNA)
DNA 1: GCCCTACTGGTCCAAGGTCATTGATCAGTCAAAGCAGCGATTGACAGCGTAGAATGAAGG
DNA 2: CCTTCATTCTACGCTGTCAATCGCTGCTTTGACTGATCAATGACCTTGGACCAGTAGGGC
B16: NRC3_wobSeed4_DR0_G11A_o1 (dsDNA)
DNA 1: GCCCTACTGGACCAAGGTCATTGATCAGTCAAAGCAGCGATTGACAGCGTAGAATGAAGG
DNA 2: CCTTCATTCTACGCTGTCAATCGCTGCTTTGACTGATCAATGACCTTGGTCCAGTAGGGC
B17: NRC3_wobSeed75_DR3_G16A_o1 (dsDNA)
DNA 1: GCTCTCGGAGGACACAAAGGTCAGAGCTTTCCAGAGGCGATTGACAGCGTAGAATGAAGG
DNA 2: CCTTCATTCTACGCTGTCAATCGCCTCTGGAAAGCTCTGACCTTTGTGTCCTCCGAGAGC
B18: NRC3_wobSeed140_DR5_T15A_o1 (dsDNA)
DNA 1: GCAGAATGAGGTTAAACGTAGATCAGGGAAGAAAGTGCGATTGACAGCGTAGAATGAAGG
DNA 2: CCTTCATTCTACGCTGTCAATCGCACTTTCTTCCCTGATCTACGTTTAACCTCATTCTGC
B19: NRC3_wobSeed135_DR5_G26A_o1 (dsDNA)
DNA 1: GCCGAACTAGGTCATTGACAGGACAATGAATAGTAAGCGATTGACAGCGTAGAATGAAGG
DNA 2: CCTTCATTCTACGCTGTCAATCGCTTACTATTCATTGTCCTGTCAATGACCTAGTTCGGC
B20: NRC3_wobSeed74_DR3_C26A_o1 (dsDNA)
DNA 1: GCTCTAGTTGGTCACGGAGGTCACAAACGACGGGTAGCGATTGACAGCGTAGAATGAAGG
DNA 2: CCTTCATTCTACGCTGTCAATCGCTACCCGTCGTTTGTGACCTCCGTGACCAACTAGAGC
B21: NRC3_wobSeed74_DR3_T21A_o1 (dsDNA)
DNA 1: GCTCTAGTTGGTCACGGAGGACACACACGACGGGTAGCGATTGACAGCGTAGAATGAAGG
DNA 2: CCTTCATTCTACGCTGTCAATCGCTACCCGTCGTGTGTGTCCTCCGTGACCAACTAGAGC
B22: NRC3_wobSeed20_DR0_A17T_o1 (dsDNA)
DNA 1: GCAGAATGAGGTTAAGTTCAGGGAAACAGAATACATGCGATTGACAGCGTAGAATGAAGG
DNA 2: CCTTCATTCTACGCTGTCAATCGCATGTATTCTGTTTCCCTGAACTTAACCTCATTCTGC
B23: NRC3_wobSeed64_DR2_A4T_o1 (dsDNA)
DNA 1: GCTTGCCTAGGTCATTGGGCCAGTATAGTACGCATCGCGATTGACAGCGTAGAATGAAGG
DNA 2: CCTTCATTCTACGCTGTCAATCGCGATGCGTACTATACTGGCCCAATGACCTAGGCAAGC
B24: NRC3_wobSeed88_DR3_G24A_o1 (dsDNA)
DNA 1: GCTAGCCTAGGTCATGCGGGCCAATATAGTGTCGGCGCGATTGACAGCGTAGAATGAAGG
DNA 2: CCTTCATTCTACGCTGTCAATCGCGCCGACACTATATTGGCCCGCATGACCTAGGCTAGC
B25: NRC3_wobSeed29_DR1_A14C_o1 (dsDNA)
DNA 1: GCGCTTACGGGTCCAAGGTTATAGCATGAATAGAATGCGATTGACAGCGTAGAATGAAGG
DNA 2: CCTTCATTCTACGCTGTCAATCGCATTCTATTCATGCTATAACCTTGGACCCGTAAGCGC
B26: NRC3_wobSeed138_DR5_C7T_o1 (dsDNA)
DNA 1: GCGATATAGGGTCAGCTAGAGGCCAGAGTATGGAAAGCGATTGACAGCGTAGAATGAAGG
DNA 2: CCTTCATTCTACGCTGTCAATCGCTTTCCATACTCTGGCCTCTAGCTGACCCTATATCGC
B27: NRC3_wobSeed104_DR4_A14G_o1 (dsDNA)
DNA 1: GCTCTTGTAGATCGATAGAGGTTAAGAAAGTGCGCTGCGATTGACAGCGTAGAATGAAGG
DNA 2: CCTTCATTCTACGCTGTCAATCGCAGCGCACTTTCTTAACCTCTATCGATCTACAAGAGC
B28: NRC3_wobSeed104_DR4_G20A_o1 (dsDNA)
DNA 1: GCTCTTGTAGATCAATAGAAGTTAAGAAAGTGCGCTGCGATTGACAGCGTAGAATGAAGG
DNA 2: CCTTCATTCTACGCTGTCAATCGCAGCGCACTTTCTTAACTTCTATTGATCTACAAGAGC
B29: NRC3_wobSeed99_DR4_C13A_o1 (dsDNA)
DNA 1: GCTCTCGGAGGAAACGAAAGGTCAGAGCTCGACATCGCGATTGACAGCGTAGAATGAAGG
DNA 2: CCTTCATTCTACGCTGTCAATCGCGATGTCGAGCTCTGACCTTTCGTTTCCTCCGAGAGC
B30: NRC3_wobSeed65_DR2_G11T_o1 (dsDNA)
DNA 1: GCATATGTAGTTTATCGGGTCATTCAGTTTGCGCATGCGATTGACAGCGTAGAATGAAGG
DNA 2: CCTTCATTCTACGCTGTCAATCGCATGCGCAAACTGAATGACCCGATAAACTACATATGC
B31: NRC3_wobSeed65_DR2_T24A_o1 (dsDNA)
DNA 1: GCATATGTAGGTTATCGGGTCATACAGTTTGCGCATGCGATTGACAGCGTAGAATGAAGG
DNA 2: CCTTCATTCTACGCTGTCAATCGCATGCGCAAACTGTATGACCCGATAACCTACATATGC
B32: NRC3_wobSeed102_DR4_G19A_o1 (dsDNA)
DNA 1: GCCCTAGCAGGCCAATCTAGGTCACTCAAGGCTTGAGCGATTGACAGCGTAGAATGAAGG
DNA 2: CCTTCATTCTACGCTGTCAATCGCTCAAGCCTTGAGTGACCTAGATTGGCCTGCTAGGGC
B33: NRC3_wobSeed110_DR4_A18T_o1 (dsDNA)
DNA 1: GCTCTGCTAGGTCAACGTTGGTCAGCTAATCTGCTAGCGATTGACAGCGTAGAATGAAGG
DNA 2: CCTTCATTCTACGCTGTCAATCGCTAGCAGATTAGCTGACCAACGTTGACCTAGCAGAGC

Each binder was assayed against LXRa:RXRa (Homo sapiens, UniProt Q13133;P19793 full;full) (assay: no ligand; PBM; 270 nM : 90 nM RXRa; PBS pH 7.4, 2% milk, 0.02% Triton X-100, 1 mM DTT, BSA, 0.4 mg/ml salmon testes DNA). Conditions: tags: His kept;His cleaved; copies: 1;1; label: surface-attached array probe.
Chain of LXRa:RXRa (Q13133 whole entry, chain 1 of 2): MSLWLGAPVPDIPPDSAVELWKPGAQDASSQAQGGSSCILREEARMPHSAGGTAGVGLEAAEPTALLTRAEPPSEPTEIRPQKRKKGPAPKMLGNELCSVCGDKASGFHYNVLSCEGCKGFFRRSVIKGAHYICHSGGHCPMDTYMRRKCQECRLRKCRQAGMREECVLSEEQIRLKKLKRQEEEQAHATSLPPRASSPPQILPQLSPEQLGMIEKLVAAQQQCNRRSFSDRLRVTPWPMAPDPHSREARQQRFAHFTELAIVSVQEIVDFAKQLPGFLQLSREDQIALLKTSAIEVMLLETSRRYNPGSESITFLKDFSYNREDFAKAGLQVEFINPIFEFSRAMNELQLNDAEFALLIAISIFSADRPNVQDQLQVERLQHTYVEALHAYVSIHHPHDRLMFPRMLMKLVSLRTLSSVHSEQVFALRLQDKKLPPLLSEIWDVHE
Chain of LXRa:RXRa (P19793 whole entry, chain 2 of 2): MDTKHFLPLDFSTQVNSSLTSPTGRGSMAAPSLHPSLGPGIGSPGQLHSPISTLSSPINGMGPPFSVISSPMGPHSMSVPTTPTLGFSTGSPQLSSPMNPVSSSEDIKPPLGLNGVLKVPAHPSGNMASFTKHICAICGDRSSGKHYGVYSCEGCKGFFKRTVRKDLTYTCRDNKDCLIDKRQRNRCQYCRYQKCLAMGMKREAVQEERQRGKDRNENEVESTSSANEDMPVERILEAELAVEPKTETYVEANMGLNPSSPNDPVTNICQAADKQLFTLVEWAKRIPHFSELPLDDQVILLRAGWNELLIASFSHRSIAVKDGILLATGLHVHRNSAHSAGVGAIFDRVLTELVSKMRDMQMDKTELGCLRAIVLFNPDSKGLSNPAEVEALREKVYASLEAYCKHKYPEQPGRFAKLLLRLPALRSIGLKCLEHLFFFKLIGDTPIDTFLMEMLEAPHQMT
Method in brief: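 Binding buffer was PBS pH 7.4 with 2% milk, 0.02% Triton X-100, 1 mM DTT, 0.2 mg/mL BSA and 0.4 mg/ml salmon testes DNA. In it, ligand-free nuclear receptor dimers were incubated 1 h on custom Agilent 4×180K protein-binding microarrays carrying double-stranded probes. Antibodies against each partner (one per run) detected binding, and z-scores were calculated against random background probes after regression normalization of scanned fluorescence.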
For B1, the binding signal was 3.51 PBM z-score against 500 random probes.
For B2, the binding signal was 3.31 PBM z-score against 500 random probes.
For B3, the binding signal was 3.18 PBM z-score against 500 random probes.
In the case of B4, the binding signal is reported as 3.56 PBM z-score against 500 random probes.
In the case of B5, the binding signal is reported as 3.67 PBM z-score against 500 random probes.
With B6 the binding signal was 3.26 PBM z-score against 500 random probes.
In the case of B7, the binding signal is reported as 3.64 PBM z-score against 500 random probes.
B8 was tested, and the binding signal was 3.72 PBM z-score against 500 random probes.
In the case of B9, the binding signal is reported as 3.48 PBM z-score against 500 random probes.
B10 was tested, and the binding signal was 3.02 PBM z-score against 500 random probes.
For B11, the binding signal was 0.49 PBM z-score against 500 random probes.
In the case of B12, the binding signal is reported as 3.46 PBM z-score against 500 random probes.
For B13, the binding signal was 3.38 PBM z-score against 500 random probes.
For B14, the binding signal was 3.37 PBM z-score against 500 random probes.
B15 was tested, and the binding signal was 3.7 PBM z-score against 500 random probes.
B16 was tested, and the binding signal was 3.62 PBM z-score against 500 random probes.
With B17 the binding signal was 3.54 PBM z-score against 500 random probes.
In the case of B18, the binding signal is reported as 3.17 PBM z-score against 500 random probes.
With B19 the binding signal was 3.59 PBM z-score against 500 random probes.
B20 was tested, and the binding signal was 3.23 PBM z-score against 500 random probes.
In the case of B21, the binding signal is reported as 0.43 PBM z-score against 500 random probes.
B22 was tested, and the binding signal was 3.43 PBM z-score against 500 random probes.
For B23, the binding signal was 3.21 PBM z-score against 500 random probes.
With B24 the binding signal was 3.29 PBM z-score against 500 random probes.
With B25 the binding signal was 0.43 PBM z-score against 500 random probes.
B26 was tested, and the binding signal was 3.06 PBM z-score against 500 random probes.
For B27, the binding signal was 3.15 PBM z-score against 500 random probes.
B28 was tested, and the binding signal was 0.44 PBM z-score against 500 random probes.
For B29, the binding signal was 3.75 PBM z-score against 500 random probes.
In the case of B30, the binding signal is reported as 3.34 PBM z-score against 500 random probes.
In the case of B31, the binding signal is reported as 3.1 PBM z-score against 500 random probes.
B32 was tested, and the binding signal was 3 PBM z-score against 500 random probes.
In the case of B33, the binding signal is reported as 3.08 PBM z-score against 500 random probes.
